Assay results: patent publication US20120195913A1 (Novartis, published 2012)

T1: human BAFF receptor (BAFFR) (human, UniProt Q96RJ3 1-184)
T1 sequence: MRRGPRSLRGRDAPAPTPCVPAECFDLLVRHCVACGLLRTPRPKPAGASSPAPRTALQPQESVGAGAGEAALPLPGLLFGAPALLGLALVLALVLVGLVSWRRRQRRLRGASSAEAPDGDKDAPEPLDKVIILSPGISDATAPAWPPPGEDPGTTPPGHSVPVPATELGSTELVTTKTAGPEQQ

T2: BAFFR:Fc fusion protein (human, UniProt Q96RJ3 1-78, biotinylated in the competition ELISA)
T2 construct: Bought reagent; also called human BAFFR:Fc; bio-BAFFR:Fc; not shown: Fc part of the bought fusion protein (Alexis / Axxora)
T2 sequence: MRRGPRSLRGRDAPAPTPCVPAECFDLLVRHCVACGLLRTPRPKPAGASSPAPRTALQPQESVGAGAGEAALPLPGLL

T3: BCMA on transfected HEK293 cells (UniProt Q02223 1-184, limits assumed)
T3 construct: whole, on cells
T3 sequence (looked up): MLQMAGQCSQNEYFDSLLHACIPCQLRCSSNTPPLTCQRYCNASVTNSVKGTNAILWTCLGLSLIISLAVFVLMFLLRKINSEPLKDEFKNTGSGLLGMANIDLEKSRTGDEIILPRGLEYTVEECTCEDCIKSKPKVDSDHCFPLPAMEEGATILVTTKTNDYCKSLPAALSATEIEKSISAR

T4: recombinant BCMA Fc-fusion protein (UniProt Q02223 1-54, limits assumed)
T4 construct: not shown: Fc part
T4 sequence (looked up): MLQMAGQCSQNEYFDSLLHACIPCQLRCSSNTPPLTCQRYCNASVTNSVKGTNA


What was measured:
[1] = target: T1, human BAFF receptor (BAFFR); experiment: cell-based or functional assay
BAFFR:Fc fusion protein = target: T2, BAFFR:Fc fusion protein; experiment: BLyS/BAFFR:Fc competition ELISA; antibody titrated, BLyS coated
Experimental: 96-well MaxiSorp plates are coated over night at 4° C. with human soluble BLyS. After coating, the wells were washed 4 times with PBS/0.05% Tween20 (PBST) and then blocked for 1 h at 37° C. with PBST containing 1% bovine serum albumin followed by 4 washing steps with PBST. Biotinylated human BAFFR:Fc fusion protein (Axxora) at 20 ng/ml was added and captured for 1 h at 37° C. together with increasing concentrations of anti-BAFFR antibodies. After another washing round, ExtrAvidin-Alkaline Phosphatase (Sigma) was added to the wells and incubated for 30 minutes at 37° C. The bound phosphatase was detected by adding a solution containing p-nitrophenyl phosphate in diethanolamin (Sigma). The color reaction was stopped after ca. 20 minutes with an equal volume of 2N sodium hydroxide and the absorbance was measured at 405 nm on a plate reader (SpectraMax 190, Molecular Devices).

[2] = target: T1, human BAFF receptor (BAFFR); experiment: competition FACS on Raji cells; Fab titrated, competitor biotinylated hsBLyS
Experimental: The BAFFR-BLyS binding assay is performed using Raji cells expressing endogenous BAFFR. The BAFFR specific Fabs are used in final dilutions ranging from 40 to 0.001 nM. The diluted Fabs are incubated in 96-well plates with 5×10⁴ Raji cells per well for 1 h at 4° C. on a shaker. Then biotinylated hsBLyS is added in a final concentration of 25 ng/ml and the cells were incubated for 30 min at 4° C. on a shaker. The cells are washed twice with FACS buffer and then resuspended in phycoerythrin-conjugated Streptavidin (Dianova) which has been diluted 1:200 in FACS buffer. The staining is performed for one hour at 4° C. on a shaker. Finally the cells are washed twice with FAGS buffer, resuspended in FACS buffer and BLyS binding to cell surface BAFFR is detected via fluorescence cytometry in the FACSArray instrument (Becton Dickinson).
The IC50 values of the antibodies of the invention in a human Fab format are determined in a BAFFR-BLyS binding inhibition assay by Fab titration on Raji cells (FACS).

[3] = target: T3, BCMA on transfected HEK293 cells; experiment: FACS on BCMA-transfected HEK293 cells
Experimental: In FACS the following Fabs are analyzed on BCMA-transfected HEK293 cells and titrated from 1 μM down to 0.005 nM: MOR06654, MOR06743, MOR07342, MOR07347, MOR7348 and MOR07349. At 330 nM only MOR07342 show an elevated binding signal which is 2-fold over background. All other tested Fabs show no signal at this concentration.

[4] = target: T4, recombinant BCMA Fc-fusion protein; experiment: ELISA titration on Fc-captured antigen
Experimental: (§1) 384-well MaxiSorp plates are coated over night at 4° C. with a goat anti-human IgG, Fc γ fragment specific capture antibody. After coating the wells were washed twice with PBS/0.05% Tween20 (PBST) and then blocked for 1 h at RT with PBST containing 5% milk powder followed by two washing steps with PBST. Recombinant BCMA and TACI Fc-fusion proteins are added and captured for 1 h at RT. Then the purified and diluted BAFFR specific Fabs are added and the plates are incubated for 1 h at RT. To detect the Fabs, an alkaline phosphatase (AP)-conjugated goat anti-human IgG, Fab specific is added and the plates are incubated for 1 h at RT. Following each incubation step the wells are washed five times with PBST. For the detection of the AP-conjugates, AttoPhos (Roche) is used according to the manufacturer's instructions. Fluorescence is measured using a TECAN Spectrafluor plate reader.
(§2) In ELISA the Fabs are titrated from 400 nM down to 0.005 nM on […] captured to a Maxisorp plate via an anti-human Fc antibody. Only MOR07342 and MOR07346 show some cross-reactivity to BCMA at high Fab concentrations >100 nM. In contrast MOR06654, MOR07347, MOR07348, MOR07349 show no binding to BCMA above background. A 1000-fold discrimination factor is met by all Fabs.

[5] = target: T4, recombinant BCMA Fc-fusion protein; experiment: ELISA on Fc-captured recombinant BCMA Fc-fusion
Experimental: as §1, §2

[6] = target: T1, human BAFF receptor (BAFFR); experiment: FACS titration of Fab on Raji cells (endogenous BAFFR)
Experimental: (§3) The EC₅₀ of the Fabs is determined by Fab titration in FACS on transfected HEK293 cells as well as on Raji cells expressing endogenous BAFFR.

[7] = target: T1, human BAFF receptor (BAFFR); experiment: FACS titration of Fab on transfected HEK293-hBAFFR cells
Experimental: as §3

B-cell proliferation Agonism EC50 [1] [nM]	B-cell proliferation Inhibition IC50 [1] [nM]	IC50 (BAFFR:Fc fusion protein) [nM]	IC50 [2] [nM]	binding result [3]	discrimination factor (BAFFR over BCMA) [4] [fold]	EC50 [6] [nM]	EC50 [7] [nM]	Binder	binding result [5]
> 187	2	0.1	–	–	–	–	–	MOR06743 Fab (Fab, V domains shown, Human Fab format; also called MOR6743) VH: QVQLQQSGPGLVKPSQTLSLTCAISGDSVSSNSAAWGWIRQSPGRGLEWLGRIYYRSKWYNSYAVSVKSRITINPDTSKNQFSLQLNSVTPEDTAVYYCARYDWVPKIGVFDSWGQGTLVTVSS VL: DIVLTQSPATLSLSPGERATLSCRASQMIDLRYLSWYQQKPGQAPRLLIYGSSSRATGVPARFSGSGSGTDFTLTISSLEPEDFAVYYCQQLYSSPMTFGQGTKVEIK	–
–	–	–	0.12	–	–	–	–	MOR07685 Fab (Fab, V domains shown) VH: QVQLQQSGPGLVKPSQTLSLTCAISGDSVSSNSAAWGWIRQSPGRGLEWLGRIYYRSKWYNSYAVSVKSRITINPDTSKNQFSLQLNSVTPEDTAVYYCARYQWVPKIGVFDSWGQGTLVTVSS VL: DIVLTQSPATLSLSPGERATLSCRASQMIDLRYLSWYQQKPGQAPRLLIYGSSSRATGVPARFSGSGSGTDFTLTISSLEPEDFAVYYCQQLYSSPMTFGQGTKVEIK	–
> 187	3.5	0.44	0.17	no binding (tested: 1 µM)	≥ 1000	0.13	0.24	MOR07349 Fab (Fab, V domains shown, Human Fab format) VH: QVQLQQSGPGLVKPSQTLSLTCAISGDSVSSNSAAWGWIRQSPGRGLEWLGRIYYRSKWWNDYAVSVKSRITINPDTSKNQFSLQLNSVTPEDTAVYYCARYDWVPKIGVFDGWGQGTLVTVSS VL: DIVLTQSPATLSLSPGERATLSCRASQMIDLRYLSWYQQKPGQAPRLLIYGSSSRATGVPARFSGSGSGTDFTLTISSLEPEDFAVYYCQQFYSSPLTFGQGTKVEIK	no binding (tested: titrated from 400 nM down to 0.005 nM)
> 187	1.3	0.1	0.02	–	≥ 1000	–	0.08	MOR07347 Fab (Fab, V domains shown, Human Fab format) VH: QVQLQQSGPGLVKPSQTLSLTCAISGDSVSSNSAAWGWIRQSPGRGLEWLGRIYYRSKWYNSYAVSVKSRITINPDTSKNQFSLQLNSVTPEDTAVYYCARYQWVPKIGVFDSWGQGTLVTVSS VL: DIVLTQSPATLSLSPGERATLSCRASQEILPEYLSWYQQKPGQAPRLLIYGSSSRATGVPARFSGSGSGTDFTLTISSLEPEDFAVYYCQQFYSSPLTFGQGTKVEIK	no binding (tested: titrated from 400 nM down to 0.005 nM)
> 187	2.9	0.96	0.2	no binding (tested: 1 µM)	≥ 1000	0.12	0.24	MOR07348 Fab (Fab, V domains shown, Human Fab format; also called MOR7348; MOR007348) VH: QVQLQQSGPGLVKPSQTLSLTCAISGDSVSSNSAAWGWIRQSPGRGLEWLGRIYYRSKWYNSYAVSVKSRITINPDTSKNQFSLQLNSVTPEDTAVYYCARYDWVPKIGVFDLWGQGTLVTVSS VL: DIVLTQSPATLSLSPGERATLSCRASQWIEAGYLSWYQQKPGQAPRLLIYGSSSRATGVPARFSGSGSGTDFTLTISSLEPEDFAVYYCQQLYSSPMTFGQGTKVEIK	no binding (tested: titrated from 400 nM down to 0.005 nM)
> 187	0.9	0.14	0.09	–	≥ 1000	0.06	0.18	MOR07342 Fab (Fab, V domains shown, Human Fab format) VH: QVQLQQSGPGLVKPSQTLSLTCAISGDSVSSNSAAWGWIRQSPGRGLEWLGRIYYRSKWYNNYAVSVKSRITINPDTSKNQFSLQLNSVTPEDTAVYYCARYKWVPKIGVFDSWGQGTLVTVSS VL: DIVLTQSPATLSLSPGERATLSCRASQMIDLRYLSWYQQKPGQAPRLLIYGSSSRATGVPARFSGSGSGTDFTLTISSLEPEDFAVYYCQQFYSSPLTFGQGTKVEIK	–
